The text below walks through data of PMC10764958.

The series deals with SARS2-NP WT (bacterial) (SARS-CoV-2, UniProt P0DTC9 1-419). In words: MST; MST: PBS with 0.05% Tween, room temperature; […]. The settings on record: protein: recombinant; tags: 2xStrep (C-term); chain copies: 2.

B1: Cy5-RNA (SARS-CoV-2 RNA) (ssRNA)
RNA: CACUCGCUAUGUCGAUAACAACUUCUGUGGCCCUGAUGGCUACCCUCUUGAGUGCAUUAAAGA
As to B1, the binding result is reported as “binds”.
